# Laboratory results from patent US10654918B2, “Inflammatory disease diagnosis and methods of treatment using down-regulators of lipopolysaccharide-responsive beige-like anchor” (University of South Florida, priority 2013, dated 2020).
# How the values were obtained:
# Format in all cases: cell-based, human
# [1] = test system: Raji cells; test: Cell surface CVID and TLR4 receptors on LRBA WT and LRBA KD Raji cells (flow cytometry)
# Description: LRBA is an important vesicle trafficking regulator (Wang, et al., Identification of a novel lipopolysaccharide-inducible gene with key features of both A kinase anchor proteins and chs1/beige proteins. 2001. J Immunol 166: 4586-4595; Cullinane, et al., The BEACH Is Hot: A LYST of Emerging Roles for BEACH-Domain Containing Proteins in Human Disease. 2013. Traffic) and may function as a master regulator of multiple CVID receptors. To test this, LRBA WT and LRBA KD Raji cells were stimulated with LPS, and the cell surface levels of CVID receptors and TLR4 were analyzed by flow cytometry. BD FACSelect Multicolor Panel Designer was used to search antibodies and build up the panel for multiple color cytometry for LSRII FACS machine. Fluorophores directly conjugated antibodies against cell surface CVID proteins were used: CD19-PerCP-Cy5.5, CD2O-PE-Cy7, CD21-V450, BAFFR-PE, TACI-APC, and CD81-APC-H7. Two panels were used when use live/dead discrimination with DAPI […] or 7AAD (overlap with V450). The standard staining procedures were followed and 20,000 to half million cells were acquired. Data acquisition was performed using FACS LSRII flow cytometers and analyzed using FACSDiva version 6.1.2.
# [2] = test system: NFκB; test: NFκB luciferase activity in A549 clones with LRBA shRNA knockdown; conditions: A549 clones with different knockdown levels, LPS 10 μg/ml; dose-dependent
# Description: FIG. 45A-D. Knockdown of LRBA deregulates NFκB. (A) Knockdown of LRBA increases NFκB luciferase activity. An NFκB luciferase reporter was used to measure the NFκB transcription activity. The data are shown as scatter with bar graph of mean with standard error of mean (SEM). (B) Knockdown of LRBA increases phospho-NFκB. The Phosflow kit including Cytofix Fixation Buffer, Phosflow Perm Buffer III and Stain Buffer (BD) and phospho-antibodies, NFκB p65 (pS529) PE-Cy7 were used for the intracellular staining following the company's instruction. For each samples, 50,000 cells were recorded for the FACS assay. (C) A549 cells were stably transfected with LRBA shRNA knockdown plasmid and several clones were picked up. Half million of cells were seeded in a well of a 24 well plate and incubated overnight, then stimulated with LPS (10 μg/ml) for certain time. Luciferase assay Biotium. NFκB luciferase activity is inversely dose-dependent on the LRBA levels in A549 cells with different levels of LRBA knockdown judged by the GFP levels of the cells stably transfected with the LRBA shRNA/GFP construct. (D) LRBA KD#3, LRBA KD#4 and LRBA KD#5 clones express different levels of GFP expression from low to high. The GFP expression levels can be an indicator of shRNA expression levels and are inversely related to the levels of LRBA. […]
# [3] = test system: MAPKs [p42/44, p38 and Jun N-terminal kinase (JNK)]; test: MAPK Western blot in Raji and Raji9 cells; conditions: LRBA KD Raji cells, LPS
# Procedure: FIGS. 47(A) and (B). Knockdown of LRBA deregulates MAPKs. Knockdown of LRBA upregulates p38 and JNK but downregulates p42/44. Half million of Raji or Raji9 cells were put in a well in a 6 well plate. After 24 hr, cells were treated with or without LPS for the time as indicated. 200 μl RIPA buffer with protease inhibitors and PMSF. (A) Western blot of cells was performed. 30 μl of cell extracts were loaded to ach well. Phosphorylated protein levels were normalized to β-Actin shown as the numbers between the two blots. (B) curves based on the Western blots. Quantity One software was used to quantify the levels.
# Like NF-κB, the mitogen-activated protein kinases (MAPKs) act as funnels to collect many stress-activated signals but function as bottle necks to filter and process these signals, and then have many diverse targets(26). Specifically, MAPKs are critical downstream hubs of the TLR4/LPS signal transduction(27) and may be affected by LRBA deficiency. The expression and activation of the three major MAPKs [p42/44, p38 and Jun N-terminal kinase (JNK)] were examined in Raji cells. […] The phospho-p42/44 measured by flow cytometry intracellular staining also is decreased (data not shown). […] The Drosophila MAPK and JNK have 82% and 78% identities with their human orthologues, respectively.
# [4] = test system: Raji and Raji9 cells; test: Annexin V apoptosis assay after infection with adenoviruses or Gram-negative bacteria; conditions: 24 hrs after infection with adenoviruses or Gram-negative bacteria
# Procedure: FIGS. 49(A) through (B) are graphs showing cells with LRBA knockdown cannot fight viral and bacterial infections efficiently. Half million of Raji and Raji9 cells were infected with adenoviruses at 100 multiplicity of infection (MOI) or 50 μl of Gram-negative bacteria from overnight culture. After 24 hours of incubation at 37° C., Apoptosis was detected by Annexin V-PE and 7-AAD. Cells that were double negative (left lower quadrant) were viable, Annexin only positive cells (right lower quadrant) were early phase of apoptosis or other cell death, and double positive cells (right upper quadrant) were end stage apoptosis or dead. ****p<9E-05, *p<0.007.
# In order for pathogens to efficiently spread to neighboring cells and evade the immune cells, and/or gain nutrients, one prominent strategy of many bacterial pathogens is to cause host cell death (31). On another hand, the host cell, first will try to kill the evaded pathogens. As such, cell death may be used as a hallmark of immunodeficiency. […] It is hypothesized that Raji cells with LRBA knockdown can serve as an immunodeficiency in vitro model, i.e. they cannot fight pathogens efficiently when compared to wild type cells, manifested as more cell death.
# [5] = Raji cell surface, LPS stimulated, Knockdown
molecule,measurement,setting,value
LRBA shRNA: shRNA plasmid against LRBA; targeted LRBA sequence SEQ ID No. 15 GGGATATTGTAGAAACTGTCTTT (nucleic acid) sense: GGGATATTGTAGAAACTGTCTTTTTCAAGAGAAAAGACAGTTTCTACAATATCCCTTTTTT antisense: CCCTATAACATCTTTGACAGAAAAAGTTCTCTTTTCTGTCAAAGATGTTATAGGGAAAAAA,BAFFR Median Intensity,[1]; [5],4198.00 ± 496.75 arbitrary fluorescence intensity units
same,BAFFR Percentage,[1]; [5],90.83 ± 0.93%
same,CD19 Median Intensity,[1]; [5],5830.17 ± 159.95 arbitrary fluorescence intensity units
same,CD19 Percentage,[1]; [5],98.57 ± 0.28%
same,CD20 Median Intensity,[1]; [5],29541.25 ± 332.06 arbitrary fluorescence intensity units
same,CD20 Percentage,[1]; [5],99.18 ± 0.04%
same,CD21 Median Intensity,[1]; [5],1659.50 ± 72.48 arbitrary fluorescence intensity units
same,CD21 Percentage,[1]; [5],55.08 ± 5.00%
same,TACI Median Intensity,[1]; [5],1813.50 ± 412.89 arbitrary fluorescence intensity units
same,TACI Percentage,[1]; [5],7.38 ± 1.49%
same,TLR4 Median Intensity,[1]; [5],11204.60 ± 2171.10 arbitrary fluorescence intensity units
same,TLR4 Percentage,[1]; [5],31.27 ± 11.42%
same,BAFFR Median Intensity fold,[1]; Wild type vs Knockdown,0.81↑
same,BAFFR Percentage fold,[1]; Wild type vs Knockdown,0.96↑
same,CD19 Median Intensity fold,[1]; Wild type vs Knockdown,1.23↓
same,CD19 Percentage fold,[1]; Wild type vs Knockdown,1.00
same,CD20 Median Intensity fold,[1]; Wild type vs Knockdown,1.21↓
same,CD20 Percentage fold,[1]; Wild type vs Knockdown,1.00
same,CD21 Median Intensity fold,[1]; Wild type vs Knockdown,0.96↑
same,CD21 Percentage fold,[1]; Wild type vs Knockdown,0.49↑
same,TACI Median Intensity fold,[1]; Wild type vs Knockdown,1.33↓
same,TACI Percentage fold,[1]; Wild type vs Knockdown,4.07↓
same,TLR4 Median Intensity fold,[1]; Wild type vs Knockdown,1.04
same,TLR4 Percentage fold,[1]; Wild type vs Knockdown,1.82↓
same,NFκB luciferase activity,[2],increases
same,JNK kinase activity,[3],increased
same,p38 kinase activity,[3],increased
same,p42/44 kinase activity,[3],reduced
same,"dead cells or apoptotic cells (Annexin V-PE, 7-AAD)",[4],more dead cells or apoptotic cells
